Reference: patent US20250000946A1 (WUXI BIOLOGICS IRELAND, published 2025)

Experiments:
[1] = target: T1, Human IL-2Rβ/γ (intermediate affinity IL-2 receptor) (human, UniProt P14784 27-551; P31785 23-369); test: cell-based or functional assay
T1 sequence (looked up) 1: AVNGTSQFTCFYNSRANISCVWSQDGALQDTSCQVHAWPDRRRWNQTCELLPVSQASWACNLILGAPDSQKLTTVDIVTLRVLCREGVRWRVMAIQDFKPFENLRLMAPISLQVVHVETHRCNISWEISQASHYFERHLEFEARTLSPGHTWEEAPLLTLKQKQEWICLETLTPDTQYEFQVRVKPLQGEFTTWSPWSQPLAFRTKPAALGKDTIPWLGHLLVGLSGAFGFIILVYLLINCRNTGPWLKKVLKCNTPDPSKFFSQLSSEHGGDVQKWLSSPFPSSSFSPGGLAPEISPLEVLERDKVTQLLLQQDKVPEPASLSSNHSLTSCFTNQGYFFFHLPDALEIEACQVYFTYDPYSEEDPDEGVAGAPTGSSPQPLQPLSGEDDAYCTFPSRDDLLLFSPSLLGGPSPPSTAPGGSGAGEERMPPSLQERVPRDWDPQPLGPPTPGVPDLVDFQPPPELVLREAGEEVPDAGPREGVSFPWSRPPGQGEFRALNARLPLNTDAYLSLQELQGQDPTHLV
T1 sequence (looked up) 2: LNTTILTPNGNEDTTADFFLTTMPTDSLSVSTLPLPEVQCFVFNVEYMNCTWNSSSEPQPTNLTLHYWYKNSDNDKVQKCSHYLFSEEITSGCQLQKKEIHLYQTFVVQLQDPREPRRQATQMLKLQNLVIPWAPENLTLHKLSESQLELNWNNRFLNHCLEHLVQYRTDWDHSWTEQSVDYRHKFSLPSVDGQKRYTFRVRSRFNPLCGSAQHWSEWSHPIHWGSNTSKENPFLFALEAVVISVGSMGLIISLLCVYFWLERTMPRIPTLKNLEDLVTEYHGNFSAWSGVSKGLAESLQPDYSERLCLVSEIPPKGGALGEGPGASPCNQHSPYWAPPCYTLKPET

[2] = target: T1, Human IL-2Rβ/γ (intermediate affinity …); test: FACS, HH cells
Protocol: (§1) Human cutaneous T cell lymphoma HH cells, malignant non-Hodgkin's lymphoma NK92 cells and cutaneous T cell lymphoma MJ20 cells were used for binding assay. They both constitutively express IL-2Rβ (CD122) and […] (CD132), and NK92 and MJ20 also expresses IL-2Rα (CD25). HH, NK92 and MJ20 cells were cultured following ATCC guidance, then transferred to a 96-plate for binding analysis. Cells were incubated with IL-2/Fc fusion proteins at the indicated concentrations for 30 min at 4° C. to avoid internalization. Binding was detected by 2nd antibody of PE-anti-human Fc at 4° C. for another 30 min. The median fluorescence intensity (MFI) on HH and NK92 cells was measured using FACS.

[3] = target: T1, Human IL-2Rβ/γ (intermediate affinity …); test: FACS, HH cells; EC50 fold vs T2U0.E44-1
Protocol: as §1

[4] = target: T2, Human IL-2Rα/β/γ complex (high affinity IL-2 receptor) (human, UniProt P01589 22-272; P14784 27-551; P31785 23-369); test: cell-based or functional assay
T2 sequence (looked up) 1: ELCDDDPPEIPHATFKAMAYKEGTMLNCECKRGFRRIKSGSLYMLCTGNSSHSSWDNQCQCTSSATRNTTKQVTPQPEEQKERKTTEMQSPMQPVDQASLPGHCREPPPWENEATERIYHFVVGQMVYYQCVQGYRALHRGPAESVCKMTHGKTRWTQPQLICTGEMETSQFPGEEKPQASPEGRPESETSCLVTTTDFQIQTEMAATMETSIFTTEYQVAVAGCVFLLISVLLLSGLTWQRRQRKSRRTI
T2 sequence (looked up) 2: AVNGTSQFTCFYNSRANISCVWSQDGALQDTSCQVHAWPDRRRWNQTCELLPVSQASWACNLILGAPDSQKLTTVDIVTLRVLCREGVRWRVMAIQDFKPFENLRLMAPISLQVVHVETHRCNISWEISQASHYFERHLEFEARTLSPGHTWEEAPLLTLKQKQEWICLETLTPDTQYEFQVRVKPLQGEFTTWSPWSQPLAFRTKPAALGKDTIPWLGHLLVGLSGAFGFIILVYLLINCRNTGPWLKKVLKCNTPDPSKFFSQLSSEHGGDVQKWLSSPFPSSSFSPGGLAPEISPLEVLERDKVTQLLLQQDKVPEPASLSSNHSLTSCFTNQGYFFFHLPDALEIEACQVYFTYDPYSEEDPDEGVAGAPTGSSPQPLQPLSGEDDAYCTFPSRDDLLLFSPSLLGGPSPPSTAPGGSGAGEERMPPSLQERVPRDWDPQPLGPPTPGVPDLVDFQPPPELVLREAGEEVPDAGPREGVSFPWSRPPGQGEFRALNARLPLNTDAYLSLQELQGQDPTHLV
T2 sequence (looked up) 3: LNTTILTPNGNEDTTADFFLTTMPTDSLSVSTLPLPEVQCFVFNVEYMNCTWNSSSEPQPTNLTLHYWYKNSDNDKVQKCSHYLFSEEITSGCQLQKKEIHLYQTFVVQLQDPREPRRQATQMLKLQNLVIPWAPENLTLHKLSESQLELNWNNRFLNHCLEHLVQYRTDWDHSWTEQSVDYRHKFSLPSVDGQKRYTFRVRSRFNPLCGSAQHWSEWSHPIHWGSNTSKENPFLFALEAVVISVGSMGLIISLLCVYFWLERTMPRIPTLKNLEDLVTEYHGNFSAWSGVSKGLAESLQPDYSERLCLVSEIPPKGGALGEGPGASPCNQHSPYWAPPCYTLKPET

[5] = target: T1, Human IL-2Rβ/γ (intermediate affinity …); test: cell-based or functional assay; remark: listed apart in the source
[6] = target: T2, Human IL-2Rα/β/γ complex (high affinity …); test: FACS, NK92 cells; EC50 fold vs T2U0.E44-1
Protocol: as §1

[7] = target: T2, Human IL-2Rα/β/γ complex (high affinity …); test: FACS, NK92 cells
Protocol: as §1

B1: W3XX115-T2U0.E44-31.uIgG4V322 (Fc fusion)
chain: APTSSSTKKTQLQLEHLLLDLQMILNGINNYKNPKLTRMLTVKFYMPKKATELKHLQCLEEELKPLEEVLNLAQSKNFHLRPRDLISNINVIVLELKGSETTFMCEYADETATIVEFLNRWITFCQSILESKYGPPCPPCPAPEAAGGPSVFLFPPKPKDTLMISRTPEVTCVVVDVSQEDPEVQFNWYVDGVEVHNAKTKPREEQFNSTYRVVSVLTVLHQDWLNGKEYKCKVSNKGLPSSIEKTISKAKGQPREPQVYTLPPCQEEMTKNQVSLWCLVKGFYPSDIAVEWESNGQPENNYKTTPPVLDSDGSFFLYSRLTVDKSRWQEGNVFSCSVMHEALHNHYTQKSLSLSLG
heavy: EIQLQQSGPELVKPGASVKVSCKASGYSFTDYNMYWVKQSHGESLEWIGYIDPYNGGTRYNQKFKGKATLTVDKSSSTAFMHLNSLTSEDSAVYYCARNGHWDGAWFAYWGQGTLVTVSAASTKGPSVFPLAPCSRSTSESTAALGCLVKDYFPEPVTVSWNSGALTSGVHTFPAVLQSSGLYSLSSVVTVPSSSLGTKTYTCNVDHKPSNTKVDKRVESKYGPPCPPCPAPEAAGGPSVFLFPPKPKDTLMISRTPEVTCVVVDVSQEDPEVQFNWYVDGVEVHNAKTKPREEQFNSTYRVVSVLTVLHQDWLNGKEYKCKVSNKGLPSSIEKTISKAKGQPREPQVCTLPPSQEEMTKNQVSLSCAVKGFYPSDIAVEWESNGQPENNYKTTPPVLDSDGSFFLVSRLTVDKSRWQEGNVFSCSVMHEALHNHYTQKSLSLSLG
light: DIQMNQSPSSLSASLGDTITITCHASQNINVWLSWYQQKPGNIPKLLIYKASNLHTGVPSRFSGSRSGTGFTLTISSLQPEDIATYYCHQGQSYPFTFGSGTKLEIKRTVAAPSVFIFPPSDEQLKSGTASVVCLLNNFYPREAKVQWKVDNALQSGNSQESVTEQDSKDSTYSLSSTLTLSKADYEKHKVYACEVTHQGLSSPVTKSFNRGEC
B1 was tested, and the “Human CD8+ T Potency EC50 (STAT5 phosphorylation)” value [1] was 365 nM, the “Human CD8+ T Potency reduction” value [1] was 100 fold and the EC50 [2] was 800 nM. For the same binder, the Affinity reduction [3] was 15.8 fold.

B2: W3XX115-T2U0.E44-32.uIgG4V322 (Fc fusion)
chain: APTSSSTKKTQLQLEHLLLDLQMILNGINNYKNPKLTRMLTIKFYMPKKATELKHLQCLEEELKPLEEVLNLAQSKNFHLRPRDLISNINVIVLELKGSETTFMCEYADETATIVEFLNRWITFCQSILESKYGPPCPPCPAPEAAGGPSVFLFPPKPKDTLMISRTPEVTCVVVDVSQEDPEVQFNWYVDGVEVHNAKTKPREEQFNSTYRVVSVLTVLHQDWLNGKEYKCKVSNKGLPSSIEKTISKAKGQPREPQVYTLPPCQEEMTKNQVSLWCLVKGFYPSDIAVEWESNGQPENNYKTTPPVLDSDGSFFLYSRLTVDKSRWQEGNVFSCSVMHEALHNHYTQKSLSLSLG
heavy: EIQLQQSGPELVKPGASVKVSCKASGYSFTDYNMYWVKQSHGESLEWIGYIDPYNGGTRYNQKFKGKATLTVDKSSSTAFMHLNSLTSEDSAVYYCARNGHWDGAWFAYWGQGTLVTVSAASTKGPSVFPLAPCSRSTSESTAALGCLVKDYFPEPVTVSWNSGALTSGVHTFPAVLQSSGLYSLSSVVTVPSSSLGTKTYTCNVDHKPSNTKVDKRVESKYGPPCPPCPAPEAAGGPSVFLFPPKPKDTLMISRTPEVTCVVVDVSQEDPEVQFNWYVDGVEVHNAKTKPREEQFNSTYRVVSVLTVLHQDWLNGKEYKCKVSNKGLPSSIEKTISKAKGQPREPQVCTLPPSQEEMTKNQVSLSCAVKGFYPSDIAVEWESNGQPENNYKTTPPVLDSDGSFFLVSRLTVDKSRWQEGNVFSCSVMHEALHNHYTQKSLSLSLG
light: DIQMNQSPSSLSASLGDTITITCHASQNINVWLSWYQQKPGNIPKLLIYKASNLHTGVPSRFSGSRSGTGFTLTISSLQPEDIATYYCHQGQSYPFTFGSGTKLEIKRTVAAPSVFIFPPSDEQLKSGTASVVCLLNNFYPREAKVQWKVDNALQSGNSQESVTEQDSKDSTYSLSSTLTLSKADYEKHKVYACEVTHQGLSSPVTKSFNRGEC
With B2 the “Human CD8+ T Potency EC50 (STAT5 phosphorylation)” value [1] was 379 nM, the “Human CD8+ T Potency reduction” value [1] was 104 fold and the EC50 [2] was 904 nM. It also gave an Affinity reduction [3] of 17.9 fold.

B3: W3XX115-T2U0.E44-7.uIgG4V1 (Fc fusion)
chain: APTSSSTKKTQLQLEHLLLDLQMILNGINNYKNPKLTRMLTFKFYMPKKATELKHLQCLEEELKPLEEVLNLAQSKNFHLRPRDLISNINVIVLELKGSETTFMCEYADETATIVEFLNRWITFCQSIESKYGPPCPPCPAPEFLGGPSVFLFPPKPKDTLMISRTPEVTCVVVDVSQEDPEVQFNWYVDGVEVHNAKTKPREEQFNSTYRVVSVLTVLHQDWLNGKEYKCKVSNKGLPSSIEKTISKAKGQPREPQVYTLPPCQEEMTKNQVSLWCLVKGFYPSDIAVEWESNGQPENNYKTTPPVLDSDGSFFLYSRLTVDKSRWQEGNVFSCSVMHEALHNHYTQKSLSLSLG
heavy: EIQLQQSGPELVKPGASVKVSCKASGYSFTDYNMYWVKQSHGESLEWIGYIDPYNGGTRYNQKFKGKATLTVDKSSSTAFMHLNSLTSEDSAVYYCARNGHWDGAWFAYWGQGTLVTVSAASTKGPSVFPLAPCSRSTSESTAALGCLVKDYFPEPVTVSWNSGALTSGVHTFPAVLQSSGLYSLSSVVTVPSSSLGTKTYTCNVDHKPSNTKVDKRVESKYGPPCPPCPAPEFLGGPSVFLFPPKPKDTLMISRTPEVTCVVVDVSQEDPEVQFNWYVDGVEVHNAKTKPREEQFNSTYRVVSVLTVLHQDWLNGKEYKCKVSNKGLPSSIEKTISKAKGQPREPQVCTLPPSQEEMTKNQVSLSCAVKGFYPSDIAVEWESNGQPENNYKTTPPVLDSDGSFFLVSRLTVDKSRWQEGNVFSCSVMHEALHNHYTQKSLSLSLG
light: DIQMNQSPSSLSASLGDTITITCHASQNINVWLSWYQQKPGNIPKLLIYKASNLHTGVPSRFSGSRSGTGFTLTISSLQPEDIATYYCHQGQSYPFTFGSGTKLEIKRTVAAPSVFIFPPSDEQLKSGTASVVCLLNNFYPREAKVQWKVDNALQSGNSQESVTEQDSKDSTYSLSSTLTLSKADYEKHKVYACEVTHQGLSSPVTKSFNRGEC
notes: IL-2 with C-terminal 5 aa (ISTLT) deleted; E44 format, IgG4
With B3 the “Potency in human Treg EC50” value [4] was 36.4 nM, the “Potency reduction (Treg)” value [4] was 1400 fold and the “Potency in human CD8+ T EC50” value [5] was 5110 nM. The “Potency reduction (CD8+ T)” value [5] was 535 fold, the Affinity reduction [6] was 94 fold and the EC50 [7] was roughly 515 nM.
